Assay [1] deals with T1, HPV45型衣壳蛋白L1病毒样颗粒(VLP)抗原 (HPV 45型) (UniProt P36741).
T1 sequence: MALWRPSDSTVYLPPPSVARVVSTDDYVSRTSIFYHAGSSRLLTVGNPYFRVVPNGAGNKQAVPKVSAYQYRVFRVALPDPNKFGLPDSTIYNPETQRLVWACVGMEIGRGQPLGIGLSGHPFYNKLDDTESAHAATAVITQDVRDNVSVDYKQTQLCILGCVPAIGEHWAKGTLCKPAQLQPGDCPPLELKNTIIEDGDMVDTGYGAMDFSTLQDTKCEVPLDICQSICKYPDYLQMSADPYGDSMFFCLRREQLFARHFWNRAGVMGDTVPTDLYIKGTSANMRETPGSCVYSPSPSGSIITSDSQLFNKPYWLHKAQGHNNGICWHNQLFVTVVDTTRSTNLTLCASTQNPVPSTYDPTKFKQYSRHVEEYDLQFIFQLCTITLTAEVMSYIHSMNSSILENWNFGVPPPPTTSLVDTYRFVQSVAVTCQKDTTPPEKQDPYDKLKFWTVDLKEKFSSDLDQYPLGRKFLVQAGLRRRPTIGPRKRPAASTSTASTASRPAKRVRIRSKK
As to the kind of experiment: sandwich ELISA, rabbit pAb R163 capture 1:500, mAb 1:20000; antigen 13.3 ug/ml, 2.5-fold series, step 4.

Assay [2] concerns the target T1, HPV45型衣壳蛋白L1病毒样颗粒(VLP)抗原 (HPV 45型). As to the kind of experiment: sandwich ELISA, rabbit pAb R163 capture 1:500, mAb 1:20000; antigen 13.3 ug/ml, 2.5-fold series, step 9.
Assay [3] has the same target. Nature of the assay: sandwich ELISA, rabbit pAb R163 capture 1:500, mAb 1:20000; antigen 13.3 ug/ml, 2.5-fold series, step 6.
The target is the same in assay [4]. As to the kind of experiment: sandwich ELISA, rabbit pAb R163 capture 1:500, mAb 1:20000; antigen 13.3 ug/ml, 2.5-fold series, step 11.
Assay [5] has the same target. Nature of the assay: direct ELISA on coated HPV45 VLP, purified antibody titrated; positive if OD > 2.1 x NC.
Assay [6] has the same target. Nature of the assay: sandwich ELISA, rabbit pAb R163 capture 1:500, mAb 1:20000; antigen 13.3 ug/ml, 2.5-fold series, step 2.

“And” between values parts separate entries of the source, which are not always exact repeats. Equal values may be shown once.

B1: 杂交瘤细胞株7A5(CGMCC NO:45706)分泌的鼠源单克隆抗体 (antibody, V domains shown)
VH: QPGAELVKPGASVKLSCKASGYTFTSYWMHWVKQRPGQGLEWIGEINPSNGHTNYNEKFKSKATLTVDKSSSTAYMQLSSLTSEDSAVYYCAPCYGSSYDYYAMDYWGQGTSVTVSS
VL: DIVLTQSPASLAVSLGQRATISCRASQSVSTSSYSYMHWYQQKPGQPPKLLIKYASNLESGVPARFSGSGSGTDFTLNIHPVEEEDTATYYCQHSWEIPYTFGGGTKLEIK
notes: also called 鼠单抗7A5; 抗体7A5
Consider B1, for which the OD in assay [1] is 2.34 OD and 2.37 OD; in assay [2], 0.106 OD; in assay [3], 0.614 OD and 0.773 OD; in assay [4], 0.066 OD and 0.056 OD; in assay [6], 3.05 OD and 3 OD. In addition, in assay [5], the 灵敏度 is 0.0005 µg/mL.

B2: 杂交瘤细胞株11G1(CGMCC NO:45707)分泌的鼠源单克隆抗体 (antibody, V domains shown)
VH: QVQLQQPGAELVKPGASVKLSCKASGYTFTSYWMHWVKRRPGQGLEWIGEINPSNGLTNYNEKFKSKGTLTVDKSSSAAFMHLSSLTSEDSAVYYCARFHGSDLYAMDYWGQGTSVTVSS
VL: DIVLTQSPASLAVSLGQRATISCRASQSVSTSSYSYMHWYQQKPGQPPKLLIKYASNLESGVPARFSGSGSGTDFTLNIHPVEEEDTATYYCQHSWEIPYTFGGGTKLEIK
notes: also called 鼠单抗11G1; 抗体11G1
For the molecule B2, the OD in assay [1] is 1.82 OD and 1.98 OD; in assay [3] it was 0.364 OD and 0.447 OD; in assay [4], 0.05 OD and 0.046 OD; in assay [6], 3.03 OD and 3.09 OD. This molecule also came in with a 灵敏度 in assay [5] of 0.0005 µg/mL.

(Values after patent publication CN117466995A (YIDAO BIOTECHNOLOGY SUZHOU CO LTD, dated 2024).)
